Source: the RNAGym collection of RNA variant scans (doi:10.1093/molbev/msab373)

B1: Azoarcus group I ribozyme (parent)
chain: GUGCCUUGCGCCGGGAAACCACGCAAGGGAUGGUGUCAAAUUCGGCGAAACCUAAGCGCCCGCCCGGGCGUAUGGCAACGCCGAGCCAAGCUUCGGCGCCUGCGCCGAUGAAGGUGUAGAGACUAGACGGCACCCACCUAAGGCAAACGCUAUGGUGAAGGCAUAGUCCAGGGAGUGGCGAAAGUCACACAAACCGG

Variants of: B1
Assay: reverse-splicing fitness (ratio to wild type); higher = more active; in vitro selection; Mg2+ level not given
Outline: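 An in vitro group I ribozyme library with randomized positions was T7-transcribed and gel-purified. In triplicate, 10 pmol RNA in EPPS pH 7.5 was reacted with 50 pmoles of a 30-nt RNA substrate for 1 h at 37 °C across several added MgCl2 levels (1–48 mM), then stopped with EDTA. Products were reverse transcribed from a substrate-complementary primer, PCR-amplified and sequenced (HiSeq 4000). Fitness is a variant's read proportion after selection over that before, normalised to wild type.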

Variant	reverse-splicing fitness
C82U A111C A120G A145C C150U C169U U176G	0.00401
C82U A111C A120G A145C C150U U176A	0.00933
C82U A111C A120G A145C C150U U176C	0.00988
C82U A111C A120G A145C C150U U176G	0.00354
C82U A111C A120G A145C C169A	0.0073
C82U A111C A120G A145C C169A U176A	0.00788
C82U A111C A120G A145C C169A U176C	0.00533
C82U A111C A120G A145C C169A U176G	0.00336
C82U A111C A120G A145C C169G	0.00924
C82U A111C A120G A145C C169G U176A	0.0216
C82U A111C A120G A145C C169G U176C	0.0122
C82U A111C A120G A145C C169G U176G	0.00397
C82U A111C A120G A145C C169U	0.007
C82U A111C A120G A145C C169U U176A	0.0137
C82U A111C A120G A145C C169U U176C	0.00886
C82U A111C A120G A145C C169U U176G	0.00308
C82U A111C A120G A145C U176A	0.0119
C82U A111C A120G A145C U176C	0.0128
C82U A111C A120G A145C U176G	0.00386
C82U A111C A120G A145G	0.0154
C82U A111C A120G A145G C150A	0.00814

Variant	reverse-splicing fitness
C82U A111C A120G A145G C150A C169A	0.00989
C82U A111C A120G A145G C150A C169A U176A	0.0155
C82U A111C A120G A145G C150A C169A U176C	0.0218
C82U A111C A120G A145G C150A C169A U176G	0.00573
C82U A111C A120G A145G C150A C169G	0.00809
C82U A111C A120G A145G C150A C169G U176A	0.0146
C82U A111C A120G A145G C150A C169G U176C	0.0241
C82U A111C A120G A145G C150A C169G U176G	0.00493
C82U A111C A120G A145G C150A C169U	0.00786
C82U A111C A120G A145G C150A C169U U176A	0.0158
C82U A111C A120G A145G C150A C169U U176C	0.0153
C82U A111C A120G A145G C150A C169U U176G	0.00519
C82U A111C A120G A145G C150A U176A	0.0093
C82U A111C A120G A145G C150A U176C	0.017
C82U A111C A120G A145G C150A U176G	0.00528
C82U A111C A120G A145G C150G	0.00776
C82U A111C A120G A145G C150G C169A	0.0087
C82U A111C A120G A145G C150G C169A U176A	0.0117
C82U A111C A120G A145G C150G C169A U176C	0.011
C82U A111C A120G A145G C150G C169A U176G	0.00775
